Laboratory results published in patent publication US20220195041A1 (IMMUNORIZON, published 2022).

Legend:
[1] = target: T1, human CD3epsilon-His (human CD3epsilon extracellular fusion antigen, Cat #10977-H08S, Sino Biological) (human, UniProt P07766 22-126); assay: ELISA, coated human CD3epsilon-His (FIG. 19A)
T1 construct: Bought reagent; also called hCD3epsilon-His; hCD3epsilon; not shown: His tag
Method: (§1) The EGFR antigens hEGFR-Fc (Cat #344-ER-050, Bio-techne) and rhesus EGFR-Fc (Cat #EGR-05252, Acro Biosystems)) were diluted to a 0.05 ug/ml concentration in PBS. Human CD3epsilon (hCD3epsilon-His (Cat #10977-H08S, Sino Biological) and cynomolgus CD3epsilon (Cat #CDE-05226, Acro Biosystems)) were diluted to a 0.01 ug/ml concentration in PBS. ELISA plate (Cat #9018, Corning) wells were filled with 100 ul of antigen suspension. Plates were incubated overnight at 4° C. Wells were blocked with 250 ul 1% BSA in PBST for 1 hr at 37° C. and then washed four times with PBST. All washes were done using Biotek (Elx 405). All construct antibodies were diluted to 15 ug/ml and prepared with 3-fold serial dilutions (12 points, including 0 ug/ml). 100 ul/well of diluted antibody construct solution was added to plate and incubated for 1 hr at 37° C. Plates were washed four times with PBST, then 100 ul/well of anti-human kappa light chain-HRP antibody (1:10000) was added and incubated for 0.5 hr at 37° C. Wells were washed 4 times with PBST, then 100 ul/well of TMB substrate was added and plates were incubated at RT for 5 min. 100 ul/well of 1.0 N HCl was added to terminate the reaction. Plates were read using ELISA plate reader at 450 nm wavelength (SpectraMax M5e). Data Analysis was performed using Graphpad Prism 5 software by using nonlinear regression (curve fit): log (agonist) vs. response, agonist is antibody concentration (nM) and response is OD value.

[2] = target: T2, hEGFR-Fc (EGFR extracellular fusion antigen, Cat #344-ER-050, Bio-techne) (human, UniProt P00533 25-645); assay: ELISA, coated hEGFR-Fc (FIG. 18A)
T2 construct: extracellular domain; Bought reagent; also called human EGFR antigen; extracellular domain of hEGFR; not shown: Fc part of the bought fusion
Method: as §1

[3] = target: T3, rhesus EGFR-Fc (rhesus EGFR extracellular fusion antigen, Cat #EGR-05252, Acro Biosystems) (rhesus, UniProt P55245 25-645); assay: ELISA, coated rhesus EGFR-Fc (FIG. 18B)
T3 construct: extracellular domain; Bought reagent; also called rhesus EGFR antigen; extracellular domain of rhesus EGFR; not shown: Fc part of the bought fusion
Method: as §1

[4] = target: T4, cyno CD3epsilon-His (cynomolgus CD3epsilon extracellular fusion antigen, Cat #CDE-05226, Acro Biosystems) (cynomolgus, UniProt Q95LI5 22-117); assay: ELISA, coated cyno CD3epsilon-His (FIG. 19B)
T4 construct: extracellular domain; Bought reagent; also called cyno CD3e antigen; not shown: His tag
T4 sequence (looked up): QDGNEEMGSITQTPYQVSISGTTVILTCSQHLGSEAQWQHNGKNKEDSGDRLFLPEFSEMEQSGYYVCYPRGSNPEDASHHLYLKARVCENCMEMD
Method: as §1

[5] = target: T5, human CD3epsilon on Jurkat cells (human, UniProt P07766 22-207); assay: FACS on Jurkat cells (FIG. 25)
T5 construct: Endogenous CD3epsilon on Jurkat T cells, within the CD3/TCR complex; also called Jurkat Cells (Human CD3e); human-CD3e expressing Jurkat cells

Measured: binding result

B1: Construct 1: Tri-Specific variable light chain-variable heavy chain (VLVH), anti-CD3epsilon Fab with two anti-EGFR scFv (VL-VH), no regulatory domains (bispecific antibody)
heavy: GGSGGSEVQLVESGGGLVQPGGSLRLSCAASGFTFNTYAMNWVRQAPGKGLEWVARIRSKYNNYATYYADSVKDRFTISRDDSKNTLYLQMNSLRAEDTAVYYCVRHGNFGNSYVSWFAYWGQGTMVTVSSASTKGPSVFPLAPSSKSTSGGTAALGCLVKDYFPEPVTVSWNSGALTSGVHTFPAVLQSSGLYSLSSVVTVPSSSLGTQTYICNVNHKPSNTKVDKRVEPKSCPPCGGGGSDIQMTQSPSSLSASVGDRVTITCQASQDISNYLNWYQQKPGKAPKLLIYDASNLETGVPSRFSGSGSGTDFTFTISSLQPEDIATYFCQHFDHLPLAFGGGTKVEIKGGGGSGGGGSGGGGSQVQLQESGPGLVKPSETLSLTCTVSGGSVSSGDYYWTWIRQSPGKGLEWIGHIYYSGNTNYNPSLKSRLTISIDTSKTQFSLKLSSVTAADTAIYYCVRDRVTGAFDIWGQGTMVTVSS
light: GGSGGSQAVVTQEPSLTVSPGGTVTLTCRSSTGAVTTSNYANWVQQKPGQAPRGLIGGTNKRAPGTPARFSGSLLGGKAALTLSGVQPEDEAEYYCALWYSNLWVFGGGTKLTVLGQPKAAPSVTLFPPSSEELQANKATLVCLISDFYPGAVTVAWKADSSPVKAGVETTTPSKQSNNKYAASSYLSLTPEQWKSHRSYSCQVTHEGSTVEKTVAPTECPPCSGGGSDIQMTQSPSSLSASVGDRVTITCQASQDISNYLNWYQQKPGKAPKLLIYDASNLETGVPSRFSGSGSGTDFTFTISSLQPEDIATYFCQHFDHLPLAFGGGTKVEIKGGGGSGGGGSGGGGSQVQLQESGPGLVKPSETLSLTCTVSGGSVSSGDYYWTWIRQSPGKGLEWIGHIYYSGNTNYNPSLKSRLTISIDTSKTQFSLKLSSVTAADTAIYYCVRDRVTGAFDIWGQGTMVTVSS
notes: Heterodimer of one HC and one LC polypeptide (about 100 kDa), no Fc; also called TriBody (VLVH); Tribody EGFR (VL-VH)
not listed: [5]
binds: all other assays above

B2: Construct 4: Precursor Tri-Specific Construct Variable Heavy Variable Light (VHVL), anti-CD3epsilon Fab, two anti-EGFR scFv, HSA and CAP regulatory domains … (bispecific antibody)
heavy: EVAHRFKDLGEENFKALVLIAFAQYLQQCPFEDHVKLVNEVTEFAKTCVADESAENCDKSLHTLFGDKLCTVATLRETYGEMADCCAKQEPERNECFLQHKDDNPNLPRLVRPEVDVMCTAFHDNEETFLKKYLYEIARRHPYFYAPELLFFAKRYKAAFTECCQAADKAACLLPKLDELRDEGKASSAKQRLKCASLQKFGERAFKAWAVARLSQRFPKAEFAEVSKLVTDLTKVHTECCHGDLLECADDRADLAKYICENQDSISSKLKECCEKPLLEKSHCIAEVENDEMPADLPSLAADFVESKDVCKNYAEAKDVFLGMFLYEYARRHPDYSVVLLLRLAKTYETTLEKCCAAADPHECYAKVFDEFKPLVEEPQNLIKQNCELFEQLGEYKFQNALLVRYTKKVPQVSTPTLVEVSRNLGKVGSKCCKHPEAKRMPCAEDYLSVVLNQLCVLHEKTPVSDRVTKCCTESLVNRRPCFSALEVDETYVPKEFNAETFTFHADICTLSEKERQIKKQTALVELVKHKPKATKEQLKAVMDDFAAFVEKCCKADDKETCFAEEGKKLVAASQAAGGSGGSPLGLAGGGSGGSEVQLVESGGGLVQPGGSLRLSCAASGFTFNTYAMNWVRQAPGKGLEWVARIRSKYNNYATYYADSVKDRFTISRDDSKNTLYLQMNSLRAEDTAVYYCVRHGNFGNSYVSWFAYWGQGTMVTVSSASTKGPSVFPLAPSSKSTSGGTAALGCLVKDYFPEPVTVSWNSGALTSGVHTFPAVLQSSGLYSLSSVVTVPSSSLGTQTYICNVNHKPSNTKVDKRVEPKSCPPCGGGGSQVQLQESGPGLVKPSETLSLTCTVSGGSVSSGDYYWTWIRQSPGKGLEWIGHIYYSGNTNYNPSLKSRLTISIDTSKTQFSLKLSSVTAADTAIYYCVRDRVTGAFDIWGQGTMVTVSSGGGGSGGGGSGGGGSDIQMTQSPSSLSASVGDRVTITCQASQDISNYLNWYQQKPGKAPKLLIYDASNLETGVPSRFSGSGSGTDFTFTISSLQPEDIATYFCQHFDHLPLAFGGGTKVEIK
light: QDGNEEMGGITQTPYKVSISGTTVILTGGSGGSPLGLAGGGSGGSQAVVTQEPSLTVSPGGTVTLTCRSSTGAVTTSNYANWVQQKPGQAPRGLIGGTNKRAPGTPARFSGSLLGGKAALTLSGVQPEDEAEYYCALWYSNLWVFGGGTKLTVLGQPKAAPSVTLFPPSSEELQANKATLVCLISDFYPGAVTVAWKADSSPVKAGVETTTPSKQSNNKYAASSYLSLTPEQWKSHRSYSCQVTHEGSTVEKTVAPTECPPCSGGGSQVQLQESGPGLVKPSETLSLTCTVSGGSVSSGDYYWTWIRQSPGKGLEWIGHIYYSGNTNYNPSLKSRLTISIDTSKTQFSLKLSSVTAADTAIYYCVRDRVTGAFDIWGQGTMVTVSSGGGGSGGGGSGGGGSDIQMTQSPSSLSASVGDRVTITCQASQDISNYLNWYQQKPGKAPKLLIYDASNLETGVPSRFSGSGSGTDFTFTISSLQPEDIATYFCQHFDHLPLAFGGGTKVEIK
notes: Uncleaved precursor (no MMP9 treatment); also called ProTriBody-C (VHVL); Pro-Tribody-C (VHVL)
binds: [2] | [3]

B3: Construct 6: Precursor Tri-Specific Non-Cleavable (NC) Variable Heavy Variable Light (VHVL), anti-CD3epsilon Fab, two anti-EGFR scFv, HSA and CAP regulatory … (bispecific antibody)
heavy: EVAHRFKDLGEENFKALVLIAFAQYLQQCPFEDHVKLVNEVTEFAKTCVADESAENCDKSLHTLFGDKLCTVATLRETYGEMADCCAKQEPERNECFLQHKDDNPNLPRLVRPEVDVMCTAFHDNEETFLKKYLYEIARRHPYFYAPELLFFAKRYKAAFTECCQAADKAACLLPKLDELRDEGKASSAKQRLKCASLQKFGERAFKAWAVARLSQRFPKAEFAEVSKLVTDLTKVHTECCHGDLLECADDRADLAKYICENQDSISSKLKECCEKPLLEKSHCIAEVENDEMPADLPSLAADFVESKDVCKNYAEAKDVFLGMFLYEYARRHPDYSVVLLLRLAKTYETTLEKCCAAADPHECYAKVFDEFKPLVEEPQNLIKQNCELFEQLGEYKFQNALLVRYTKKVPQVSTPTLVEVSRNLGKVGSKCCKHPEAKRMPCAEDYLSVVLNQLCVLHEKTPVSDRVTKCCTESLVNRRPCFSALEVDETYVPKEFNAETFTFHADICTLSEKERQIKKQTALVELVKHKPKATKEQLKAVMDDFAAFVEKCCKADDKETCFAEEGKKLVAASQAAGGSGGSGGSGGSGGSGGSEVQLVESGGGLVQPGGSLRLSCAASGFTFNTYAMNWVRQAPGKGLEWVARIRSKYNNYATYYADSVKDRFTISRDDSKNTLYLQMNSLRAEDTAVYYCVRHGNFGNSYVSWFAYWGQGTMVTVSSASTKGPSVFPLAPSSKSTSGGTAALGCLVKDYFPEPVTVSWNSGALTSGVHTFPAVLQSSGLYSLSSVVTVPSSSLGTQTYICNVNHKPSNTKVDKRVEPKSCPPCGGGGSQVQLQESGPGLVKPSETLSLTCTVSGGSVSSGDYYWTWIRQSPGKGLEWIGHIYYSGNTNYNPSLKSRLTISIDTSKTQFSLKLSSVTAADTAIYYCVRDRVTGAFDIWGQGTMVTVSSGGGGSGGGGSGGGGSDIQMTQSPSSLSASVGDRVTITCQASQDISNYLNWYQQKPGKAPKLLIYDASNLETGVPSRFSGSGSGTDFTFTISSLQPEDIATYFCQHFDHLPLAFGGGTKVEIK
light: QDGNEEMGGITQTPYKVSISGTTVILTGGSGGSGGSGGSGGSGGSQAVVTQEPSLTVSPGGTVTLTCRSSTGAVTTSNYANWVQQKPGQAPRGLIGGTNKRAPGTPARFSGSLLGGKAALTLSGVQPEDEAEYYCALWYSNLWVFGGGTKLTVLGQPKAAPSVTLFPPSSEELQANKATLVCLISDFYPGAVTVAWKADSSPVKAGVETTTPSKQSNNKYAASSYLSLTPEQWKSHRSYSCQVTHEGSTVEKTVAPTECPPCSGGGSQVQLQESGPGLVKPSETLSLTCTVSGGSVSSGDYYWTWIRQSPGKGLEWIGHIYYSGNTNYNPSLKSRLTISIDTSKTQFSLKLSSVTAADTAIYYCVRDRVTGAFDIWGQGTMVTVSSGGGGSGGGGSGGGGSDIQMTQSPSSLSASVGDRVTITCQASQDISNYLNWYQQKPGKAPKLLIYDASNLETGVPSRFSGSGSGTDFTFTISSLQPEDIATYFCQHFDHLPLAFGGGTKVEIK
notes: Not cleaved by MMP9, so the same molecule stands in the assays with and without MMP9; also called ProTriBody-NC (VHVL); Pro-Tribody-NC (VHVL)
binds: [2] | [3]

B4: Construct 3: Precursor Tri-Specific Variable Light-Variable Heavy (VLVH), anti-CD3epsilon Fab, two anti-EGFR scFv, HSA and CAP regulatory domains linked by … (bispecific antibody)
heavy: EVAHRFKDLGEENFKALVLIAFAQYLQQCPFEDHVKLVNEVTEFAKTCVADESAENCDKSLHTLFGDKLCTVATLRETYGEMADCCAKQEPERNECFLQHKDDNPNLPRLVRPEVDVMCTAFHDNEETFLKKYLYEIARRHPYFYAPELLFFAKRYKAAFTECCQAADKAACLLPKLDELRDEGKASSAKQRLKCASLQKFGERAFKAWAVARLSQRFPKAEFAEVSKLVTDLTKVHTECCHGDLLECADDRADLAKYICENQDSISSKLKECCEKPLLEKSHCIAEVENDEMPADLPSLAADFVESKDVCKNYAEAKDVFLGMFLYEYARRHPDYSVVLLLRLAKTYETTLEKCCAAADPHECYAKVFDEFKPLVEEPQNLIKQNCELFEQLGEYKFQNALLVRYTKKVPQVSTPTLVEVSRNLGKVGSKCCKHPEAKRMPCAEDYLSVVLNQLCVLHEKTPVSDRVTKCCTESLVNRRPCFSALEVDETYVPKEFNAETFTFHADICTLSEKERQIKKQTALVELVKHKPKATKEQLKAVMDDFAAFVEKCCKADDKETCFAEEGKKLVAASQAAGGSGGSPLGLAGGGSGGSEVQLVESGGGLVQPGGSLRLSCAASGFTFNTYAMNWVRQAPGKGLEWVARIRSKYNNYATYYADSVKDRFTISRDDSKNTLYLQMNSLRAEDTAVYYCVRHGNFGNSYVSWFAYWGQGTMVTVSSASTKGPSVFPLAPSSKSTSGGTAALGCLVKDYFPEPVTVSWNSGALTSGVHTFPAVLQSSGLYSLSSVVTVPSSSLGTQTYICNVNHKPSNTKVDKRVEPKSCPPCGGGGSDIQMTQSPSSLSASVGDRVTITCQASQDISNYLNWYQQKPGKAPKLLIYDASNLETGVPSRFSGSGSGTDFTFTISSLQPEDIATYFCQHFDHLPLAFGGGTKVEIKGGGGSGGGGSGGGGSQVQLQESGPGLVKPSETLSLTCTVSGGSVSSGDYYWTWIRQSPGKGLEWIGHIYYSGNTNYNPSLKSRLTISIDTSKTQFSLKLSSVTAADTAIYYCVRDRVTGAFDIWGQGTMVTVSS
light: QDGNEEMGGITQTPYKVSISGTTVILTGGSGGSPLGLAGGGSGGSQAVVTQEPSLTVSPGGTVTLTCRSSTGAVTTSNYANWVQQKPGQAPRGLIGGTNKRAPGTPARFSGSLLGGKAALTLSGVQPEDEAEYYCALWYSNLWVFGGGTKLTVLGQPKAAPSVTLFPPSSEELQANKATLVCLISDFYPGAVTVAWKADSSPVKAGVETTTPSKQSNNKYAASSYLSLTPEQWKSHRSYSCQVTHEGSTVEKTVAPTECPPCSGGGSDIQMTQSPSSLSASVGDRVTITCQASQDISNYLNWYQQKPGKAPKLLIYDASNLETGVPSRFSGSGSGTDFTFTISSLQPEDIATYFCQHFDHLPLAFGGGTKVEIKGGGGSGGGGSGGGGSQVQLQESGPGLVKPSETLSLTCTVSGGSVSSGDYYWTWIRQSPGKGLEWIGHIYYSGNTNYNPSLKSRLTISIDTSKTQFSLKLSSVTAADTAIYYCVRDRVTGAFDIWGQGTMVTVSS
notes: Uncleaved precursor, about 170 kDa; also called ProTriBody-C EGFR (VL-VH); Precursor Tri-body construct (VL-VH)
not listed: [5]
binds: all other assays above

B5: Construct 5: Precursor Tri-Specific Non-Cleavable (NC) Variable Light Variable Heavy (VLVH), anti-CD3epsilon Fab, two anti-EGFR scFv, HSA and CAP regulatory … (bispecific antibody)
heavy: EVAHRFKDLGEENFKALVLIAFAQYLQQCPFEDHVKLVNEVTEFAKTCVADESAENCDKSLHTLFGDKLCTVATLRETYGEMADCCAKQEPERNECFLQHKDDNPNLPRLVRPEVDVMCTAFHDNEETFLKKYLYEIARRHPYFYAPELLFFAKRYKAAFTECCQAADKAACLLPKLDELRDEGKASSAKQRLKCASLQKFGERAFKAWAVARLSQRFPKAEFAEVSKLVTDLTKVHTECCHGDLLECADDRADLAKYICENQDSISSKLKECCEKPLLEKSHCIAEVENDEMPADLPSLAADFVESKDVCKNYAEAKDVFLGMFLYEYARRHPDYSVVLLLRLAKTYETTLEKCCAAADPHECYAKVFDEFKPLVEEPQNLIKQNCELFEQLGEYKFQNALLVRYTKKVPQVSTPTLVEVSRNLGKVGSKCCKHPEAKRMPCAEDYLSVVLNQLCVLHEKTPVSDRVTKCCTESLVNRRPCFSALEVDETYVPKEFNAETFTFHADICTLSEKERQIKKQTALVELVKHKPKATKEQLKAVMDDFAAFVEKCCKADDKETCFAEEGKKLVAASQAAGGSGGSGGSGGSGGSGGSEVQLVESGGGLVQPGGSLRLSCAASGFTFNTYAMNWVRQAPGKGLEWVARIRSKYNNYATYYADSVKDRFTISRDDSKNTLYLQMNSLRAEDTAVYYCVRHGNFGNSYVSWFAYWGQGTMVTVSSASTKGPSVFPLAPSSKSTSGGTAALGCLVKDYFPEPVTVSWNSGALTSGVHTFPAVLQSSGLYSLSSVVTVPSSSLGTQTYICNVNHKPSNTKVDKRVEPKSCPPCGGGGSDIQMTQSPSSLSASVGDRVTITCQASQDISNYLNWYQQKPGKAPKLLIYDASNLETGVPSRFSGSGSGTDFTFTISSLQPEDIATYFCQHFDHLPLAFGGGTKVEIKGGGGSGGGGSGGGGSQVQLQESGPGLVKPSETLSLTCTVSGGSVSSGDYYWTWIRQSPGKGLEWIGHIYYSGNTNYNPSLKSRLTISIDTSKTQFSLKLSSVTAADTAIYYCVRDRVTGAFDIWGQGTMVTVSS
light: QDGNEEMGGITQTPYKVSISGTTVILTGGSGGSGGSGGSGGSGGSQAVVTQEPSLTVSPGGTVTLTCRSSTGAVTTSNYANWVQQKPGQAPRGLIGGTNKRAPGTPARFSGSLLGGKAALTLSGVQPEDEAEYYCALWYSNLWVFGGGTKLTVLGQPKAAPSVTLFPPSSEELQANKATLVCLISDFYPGAVTVAWKADSSPVKAGVETTTPSKQSNNKYAASSYLSLTPEQWKSHRSYSCQVTHEGSTVEKTVAPTECPPCSGGGSDIQMTQSPSSLSASVGDRVTITCQASQDISNYLNWYQQKPGKAPKLLIYDASNLETGVPSRFSGSGSGTDFTFTISSLQPEDIATYFCQHFDHLPLAFGGGTKVEIKGGGGSGGGGSGGGGSQVQLQESGPGLVKPSETLSLTCTVSGGSVSSGDYYWTWIRQSPGKGLEWIGHIYYSGNTNYNPSLKSRLTISIDTSKTQFSLKLSSVTAADTAIYYCVRDRVTGAFDIWGQGTMVTVSS
notes: also called ProTriBody-NC EGFR (VL-VH); Non-Cleavable Precursor Tri-body construct (VL-VH)
not listed: [5]
binds: all other assays above

B6: Construct 2: Tri-Specific variable heavy chain-variable light chain (VHVL), anti-CD3epsilon Fab with two anti-EGFR scFv (VH-VL), no regulatory domains (bispecific antibody)
heavy: GGSGGSEVQLVESGGGLVQPGGSLRLSCAASGFTFNTYAMNWVRQAPGKGLEWVARIRSKYNNYATYYADSVKDRFTISRDDSKNTLYLQMNSLRAEDTAVYYCVRHGNFGNSYVSWFAYWGQGTMVTVSSASTKGPSVFPLAPSSKSTSGGTAALGCLVKDYFPEPVTVSWNSGALTSGVHTFPAVLQSSGLYSLSSVVTVPSSSLGTQTYICNVNHKPSNTKVDKRVEPKSCPPCGGGGSQVQLQESGPGLVKPSETLSLTCTVSGGSVSSGDYYWTWIRQSPGKGLEWIGHIYYSGNTNYNPSLKSRLTISIDTSKTQFSLKLSSVTAADTAIYYCVRDRVTGAFDIWGQGTMVTVSSGGGGSGGGGSGGGGSDIQMTQSPSSLSASVGDRVTITCQASQDISNYLNWYQQKPGKAPKLLIYDASNLETGVPSRFSGSGSGTDFTFTISSLQPEDIATYFCQHFDHLPLAFGGGTKVEIK
light: GGSGGSQAVVTQEPSLTVSPGGTVTLTCRSSTGAVTTSNYANWVQQKPGQAPRGLIGGTNKRAPGTPARFSGSLLGGKAALTLSGVQPEDEAEYYCALWYSNLWVFGGGTKLTVLGQPKAAPSVTLFPPSSEELQANKATLVCLISDFYPGAVTVAWKADSSPVKAGVETTTPSKQSNNKYAASSYLSLTPEQWKSHRSYSCQVTHEGSTVEKTVAPTECPPCSGGGSQVQLQESGPGLVKPSETLSLTCTVSGGSVSSGDYYWTWIRQSPGKGLEWIGHIYYSGNTNYNPSLKSRLTISIDTSKTQFSLKLSSVTAADTAIYYCVRDRVTGAFDIWGQGTMVTVSSGGGGSGGGGSGGGGSDIQMTQSPSSLSASVGDRVTITCQASQDISNYLNWYQQKPGKAPKLLIYDASNLETGVPSRFSGSGSGTDFTFTISSLQPEDIATYFCQHFDHLPLAFGGGTKVEIK
notes: Heterodimer of one HC and one LC polypeptide, no Fc; also called TriBody (VHVL); Tribody (VHVL)
binds: all assays above
